Measured values reported in IntAct's records for PubMed 17167415.

B1: DNA replication regulator SLD3 (Saccharomyces cerevisiae), P53135 (parent)
chain: METWEVIASVKEATKGLDLSLDHPLIIKSEDVPSNILQLLQQKNRRQLKHICMKSRKEYFLLEEYGPGFWVKWPYNYFNGYSLPERRTEVVTTVERERAKRETLKTWDELKFKELLHLWSEEPKGSCKLEKDKDLKLDMNPPDMKGESKINDYYSDPKEYIESKYYDALFSIHTPLAYFVKSNLVRLKNTCRTKYGSDSYKIAYQAMLQKFLLSIVQFKDRHDNRLLLEPFSSPIADEKRKNCLTKFVIQDENKNSSTIADLCVVLKSREIKLQILLLLEIIGLNDLDWNFRDFEKKYKLKLKKRSLNLTKKGLVRRRSKKKTSEKDKGIERITTSLDYCEQLDLYLDRACILDILLSSETPNPDAIEASNGTIQEHKKNILDKSKEASLVGFINYVLIPYFNKKVPHAVEFIIQKLKGPSMRPKRALKKVNDSTNVSSPNTVETYNRLSTSQRASRSSIINSVPSSPALRRVDANLFSRKSIASPTPELLNSRTNSNLNEFLESETRSLKRPSQLGRTKSDLTMNHLQKRQFSVSDLSTTRVPNSSTITLKTPFSHSTINAYKTMNNSFRRVGKRKDINETIRLHERVDSEENVQVQATPAVKKRTVTPNKKAQLQSIIESPLNFKDDDTHEGRKNTSNITSTPTNKPPENSSKRRVRRRLFAPEST
partner: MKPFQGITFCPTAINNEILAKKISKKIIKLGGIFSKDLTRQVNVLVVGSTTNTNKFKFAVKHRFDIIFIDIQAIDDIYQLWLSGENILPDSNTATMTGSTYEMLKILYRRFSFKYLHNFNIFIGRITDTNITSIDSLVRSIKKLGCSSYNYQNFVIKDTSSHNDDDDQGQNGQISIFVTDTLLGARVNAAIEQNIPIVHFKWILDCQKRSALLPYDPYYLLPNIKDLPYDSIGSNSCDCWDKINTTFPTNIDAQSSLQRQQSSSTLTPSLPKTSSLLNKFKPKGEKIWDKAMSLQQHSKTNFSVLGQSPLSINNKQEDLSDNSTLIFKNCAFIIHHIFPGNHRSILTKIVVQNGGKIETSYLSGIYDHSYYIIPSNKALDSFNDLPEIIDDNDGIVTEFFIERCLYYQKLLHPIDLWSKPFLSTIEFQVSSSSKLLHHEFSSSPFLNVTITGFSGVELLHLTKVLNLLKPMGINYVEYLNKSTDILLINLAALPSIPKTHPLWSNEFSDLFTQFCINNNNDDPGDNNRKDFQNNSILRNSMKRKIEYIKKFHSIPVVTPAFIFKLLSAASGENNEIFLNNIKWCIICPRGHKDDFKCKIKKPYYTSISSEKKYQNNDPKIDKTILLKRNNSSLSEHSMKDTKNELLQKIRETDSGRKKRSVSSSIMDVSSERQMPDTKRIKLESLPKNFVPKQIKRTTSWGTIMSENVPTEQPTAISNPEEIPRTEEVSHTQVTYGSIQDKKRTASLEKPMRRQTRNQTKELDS

Variants of: B1
Conditions: with dpb11_yeast DPB11, P47027

Row | effect of a mutation on the interaction | Variant
1 | disrupting interaction strength | T600A;S622A
